Results: patent US20240301031A1 (JIANGSU HENGRUI PHARMACEUTICALS, published 2024)
Substitutions are numbered along the chain they refer to. Names and notes keep the numbering of the source. Like-named read-outs stand apart in the source and are kept apart here. One block for each binder: values may come before it.

Assays:
[1] = target: T1, human BAFF (10056-HNCH, Sino biological) (human, UniProt Q9Y275 134-285); assay: ELISA, BAFF coated, fusion protein titrated
T1 construct: Bought protein
Method: (§1) The binding activity of the antibodies or fusion proteins for BAFF, APRIL, and IL-12/23 p40 was assayed by the ELISA method (coating an antigen protein). The specific procedures were as follows:
(§2) A BAFF (Sino biological, 10056-HNCH), APRIL (R&D Systems, 5860-AP-010/CF), or IL-12/23 p40 (Sino biological, 10052-H08H) protein was diluted to 1 μg/mL with a PBS (BasalMedia, B320) buffer at pH 7.4, and added to a 96-well microplate (Corning, 3590) at 100 μL/well. The plate was incubated at 4° C. overnight. After the liquid was discarded, 300 μL of 5% skim milk (BD, 232100) diluted with PBS was added to each well for blocking, and the plate was incubated at 37° C. for 2 h. After the blocking was completed, the blocking solution was discarded, and the plate was washed 3 times with a PBST buffer (PBS at pH 7.4 containing 0.1% tween-20). 100 μL of test antibody or fusion protein solution diluted in a gradient was added to each well, and the plate was incubated at 37° C. for 1 h. After the incubation was completed, the plate was washed 3 times with PBST. […] The plate was washed 3 times with PBST. 100 μL of TMB chromogenic substrate (KPL, 5120-0077) was added to each well, and the plate was incubated at room temperature for 10-15 min. The reaction was stopped by adding 50 μL of 1 M H₂SO₄ to each well. The plate was read for absorbance values at 450 nm on a microplate reader, the binding curves of the antibodies to an antigen were fitted with software, and the EC₅₀ values were calculated.

[2] = target: T1, human BAFF (10056-HNCH, Sino biological); assay: competition ELISA: biotin-labeled BAFF to coated BAFF-R
Method: The blocking activity of the antibodies and the fusion proteins for receptors and ligands such as BAFF/BAFF-R, BAFF/BCMA, BAFF/TACI, APRIL/BCMA, APRIL/TACI, and p40/IL-12R1 was assayed by the ELISA method. The specific procedures were as follows:
A receptor protein was diluted to 2 μg/mL with PBS at pH 7.4 (BasalMedia, B320) and added to a 96-well microplate (Corning, 3590) at 100 μL/well. The plate was incubated at 4° C. overnight. After the liquid was discarded, 200 μL of 1% Casein blocking solution (Thermo, 37528) was added to each well for blocking, and the plate was incubated at 37° C. for 2 h. After the blocking was completed, the blocking solution was discarded, and the plate was washed 3 times with a PBST buffer (PBS at pH 7.4 containing 0.1% tween-20) for later use. A biotin-labeled ligand protein at a fixed concentration was mixed with the antibody or fusion protein diluted in gradient, pre-incubated at 37° C. for 30 min, and added to a blocked microplate. The plate was incubated at 37° C. for 1.5 h. After the incubation was completed, the plate was washed 3 times with PBST. 100 μL of streptavidin-HRP (Invitrogen, 434323, diluted at a ratio of 1:4000) was added to each well, and the plate was incubated at 37° C. for 1 h. The supernatant was removed, and the plate was washed 3 times with PBST. 100 μL of TMB chromogenic substrate (KPL, 5120-0077) was added to each well, and the plate was incubated at room temperature for 10-15 min. The reaction was stopped by adding 50 μL of 1 M H₂SO₄ to each well. The plate was read for absorbance values at 450 nm on a microplate reader, the curves for the inhibition of the binding of the ligands to the receptors were fitted with software, and the IC₅₀ values were calculated.

[3] = target: T1, human BAFF (10056-HNCH, Sino biological); assay: ELISA, BAFF coated, fusion protein titrated; remark: listed apart in the source
Method: as §1, §2

[4] = target: T1, human BAFF (10056-HNCH, Sino biological); assay: SPR (Biacore), sample captured on Protein A, antigen flowed, 1:1 fit
[5] = target: T2, human APRIL (5860-AP-010/CF, R&D Systems) (human, UniProt O75888 115-250, limits assumed); assay: as above
T2 construct: Bought protein
T2 sequence (looked up): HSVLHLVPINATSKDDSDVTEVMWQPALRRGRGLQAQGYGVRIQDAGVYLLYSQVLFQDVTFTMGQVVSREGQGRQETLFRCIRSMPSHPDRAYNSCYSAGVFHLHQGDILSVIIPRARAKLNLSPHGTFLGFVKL
Method: A certain amount of test sample was subjected to affinity capture by a biosensor chip Protein A (GE, 29127556), then antigens at a series of concentration gradients were allowed to flow on the surface of the chip. The reaction signals were detected in real time by using Biacore (GE, 8K) to obtain association and dissociation curves. After the dissociation was completed for each cycle, the biochip was washed and regenerated with a 10 mM glycine-hydrochloric acid solution at pH 1.5 (GE, BR-1003-54). The experimental data were fitted using BIAevaluation version 4.1, GE software with a 1:1 model to obtain affinity values. The related antigen proteins used in this assay are as follows: human IL-23 (CT048-H08H, Sino biological), human IL-12 (CT050-H08H, Sino biological), human BAFF (10056-HNCH, Sino biological), human APRIL (5860-AP-010/CF, R&D Systems), cynomolgus monkey p40 (10215-CL, R&D Systems), cynomolgus monkey BAFF (BAF-CM412B, Kactus), cynomolgus monkey APRIL (APR-CM410B, Kactus), mouse BAFF (BAF-M521y, Acro Biosystems), and mouse APRIL (7907-AP/CF, R&D Systems).

EC50 [1]: 0.996 nM
IC50 [2]: 2.82 nM
B1: TACI-17Fc (Fc fusion)
chain: SCRKEQGKFYDHLLRDCISCASICGQHPKQCAYFCEDKTHTCPPCPAPEAEGAPSVFLFPPKPKDTLMISRTPEVTCVVVDVSHEDPEVKFNWYVDGVEVHNAKTKPREEQYNSTYRVVSVLTVLHQDWLNGKEYKCKVSNKALPSSIEKTISKAKGQPREPQVYTLPPSRDELTKNQVSLTCLVKGFYPSDIAVEWESNGQPENNYKTTPPVLDSDGSFFLYSKLTVDKSRWQQGNVFSCSVMHEALHNHYTQKSLSLSPGK
notes: Fused directly to Fc; two identical polypeptides

EC50 [1]: 0.992 nM
IC50 [2]: 3.26 nM
B13: TACI-18Fc (Fc fusion)
chain: CRKEQGKFYDHLLRDCISCASICGQHPKQCAYFCEDKTHTCPPCPAPEAEGAPSVFLFPPKPKDTLMISRTPEVTCVVVDVSHEDPEVKFNWYVDGVEVHNAKTKPREEQYNSTYRVVSVLTVLHQDWLNGKEYKCKVSNKALPSSIEKTISKAKGQPREPQVYTLPPSRDELTKNQVSLTCLVKGFYPSDIAVEWESNGQPENNYKTTPPVLDSDGSFFLYSKLTVDKSRWQQGNVFSCSVMHEALHNHYTQKSLSLSPGK
notes: as for B1

EC50 [1]: 7.19 nM
IC50 [2]: 2360 nM
B14: TACI-20Fc (Fc fusion)
chain: KEQGKFYDHLLRDCISCASICGQHPKQCAYFCEDKTHTCPPCPAPEAEGAPSVFLFPPKPKDTLMISRTPEVTCVVVDVSHEDPEVKFNWYVDGVEVHNAKTKPREEQYNSTYRVVSVLTVLHQDWLNGKEYKCKVSNKALPSSIEKTISKAKGQPREPQVYTLPPSRDELTKNQVSLTCLVKGFYPSDIAVEWESNGQPENNYKTTPPVLDSDGSFFLYSKLTVDKSRWQQGNVFSCSVMHEALHNHYTQKSLSLSPGK
notes: as for B1

EC50 [1]: 9.8 nM
IC50 [2]: 2520 nM
B15: TACI-21Fc (Fc fusion)
chain: EQGKFYDHLLRDCISCASICGQHPKQCAYFCEDKTHTCPPCPAPEAEGAPSVFLFPPKPKDTLMISRTPEVTCVVVDVSHEDPEVKFNWYVDGVEVHNAKTKPREEQYNSTYRVVSVLTVLHQDWLNGKEYKCKVSNKALPSSIEKTISKAKGQPREPQVYTLPPSRDELTKNQVSLTCLVKGFYPSDIAVEWESNGQPENNYKTTPPVLDSDGSFFLYSKLTVDKSRWQQGNVFSCSVMHEALHNHYTQKSLSLSPGK
notes: as for B1

EC50 [1]: 4.99 nM
IC50 [2]: 2220 nM
B16: TACI-19Fc (Fc fusion)
chain: RKEQGKFYDHLLRDCISCASICGQHPKQCAYFCEDKTHTCPPCPAPEAEGAPSVFLFPPKPKDTLMISRTPEVTCVVVDVSHEDPEVKFNWYVDGVEVHNAKTKPREEQYNSTYRVVSVLTVLHQDWLNGKEYKCKVSNKALPSSIEKTISKAKGQPREPQVYTLPPSRDELTKNQVSLTCLVKGFYPSDIAVEWESNGQPENNYKTTPPVLDSDGSFFLYSKLTVDKSRWQQGNVFSCSVMHEALHNHYTQKSLSLSPGK
notes: as for B1

EC50 [1]: 0.599 nM
IC50 [2]: 2.22 nM
B17: TACI-16Fc (Fc fusion)
chain: LSCRKEQGKFYDHLLRDCISCASICGQHPKQCAYFCEDKTHTCPPCPAPEAEGAPSVFLFPPKPKDTLMISRTPEVTCVVVDVSHEDPEVKFNWYVDGVEVHNAKTKPREEQYNSTYRVVSVLTVLHQDWLNGKEYKCKVSNKALPSSIEKTISKAKGQPREPQVYTLPPSRDELTKNQVSLTCLVKGFYPSDIAVEWESNGQPENNYKTTPPVLDSDGSFFLYSKLTVDKSRWQQGNVFSCSVMHEALHNHYTQKSLSLSPGK
notes: as for B1

Continued, binder first:

B2: TACI-9-5Fc (Fc fusion)
chain: SLSCRKEQGEFYDHLLRDCISCASICGQHPKQCAYFCENKLDKTHTCPPCPAPEAEGAPSVFLFPPKPKDTLMISRTPEVTCVVVDVSHEDPEVKFNWYVDGVEVHNAKTKPREEQYNSTYRVVSVLTVLHQDWLNGKEYKCKVSNKALPSSIEKTISKAKGQPREPQVYTLPPSRDELTKNQVSLTCLVKGFYPSDIAVEWESNGQPENNYKTTPPVLDSDGSFFLYSKLTVDKSRWQQGNVFSCSVMHEALHNHYTQKSLSLSPGK
notes: two identical polypeptides
EC50 [3]: 0.146 nM

B3: TACI-9-8Fc (Fc fusion)
chain: B2 chain with E10K, Y35A
notes: two identical polypeptides
EC50 [3]: 0.2 nM

B4: TACI-9-15Fc (Fc fusion)
chain: B2 chain with L2T, K6E, Y35A
notes: two identical polypeptides
Kd [4]: 0.0773 nM
koff [4]: 2.12e-05 s⁻¹
kon [4]: 274000 M⁻¹ s⁻¹
EC50 [3]: 0.0869 nM
Kd [5]: 0.0125 nM
koff [5]: 9.6e-05 s⁻¹
kon [5]: 7.67e+06 M⁻¹ s⁻¹

B5: TACI-9-9Fc (Fc fusion)
chain: B2 chain with L2R, E10K, D18T, Y35R
notes: two identical polypeptides
EC50 [3]: 0.937 nM

B6: TACI-9-7Fc (Fc fusion)
chain: B2 chain with L2R, E10K, D18A
notes: two identical polypeptides
EC50 [3]: 0.727 nM

B7: TACI-9-10Fc (Fc fusion)
chain: B2 chain with K6E
notes: TACI-9 with K6E and K10E, fused to Fc; two identical polypeptides
Kd [4]: 0.081 nM
koff [4]: 1.89e-05 s⁻¹
kon [4]: 234000 M⁻¹ s⁻¹
EC50 [3]: 0.12 nM
Kd [5]: 0.0128 nM
koff [5]: 0.000112 s⁻¹
kon [5]: 8.75e+06 M⁻¹ s⁻¹

B8: TACI-9-11Fc (Fc fusion)
chain: B2 chain with R5S, K6E
notes: two identical polypeptides
EC50 [3]: 0.195 nM

B9: TACI-9-12Fc (Fc fusion)
chain: B2 chain with L2T, E10K, Y35A
notes: two identical polypeptides
EC50 [3]: 0.122 nM

B10: TACI-9-6Fc (Fc fusion)
chain: B2 chain with L2R, E10K, D18T
notes: two identical polypeptides
EC50 [3]: 0.367 nM

B11: TACI-9-13Fc (Fc fusion)
chain: B2 chain with L2T, E10K, F36Y
notes: two identical polypeptides
EC50 [3]: 0.433 nM

B12: TACI-9-14Fc (Fc fusion)
chain: B2 chain with L2T, E10K, Y35A, F36Y
notes: two identical polypeptides
EC50 [3]: 0.223 nM
